From the supplement of paper PMC7877785
± gives the uncertainty stated by the source.

Experiment: self-splicing fitness, log relative to wild type (ln ratio); higher = more splicing; Tetrahymena group I intron in knt gene, E. coli kanamycin selection, DiMSum; sequences stand for … in CUCUCU…GGAGGGAAAAGUUAUCAGGCAUGCACCUGGUAGCUAGUCUUUAAACCAAUAGAUUGCAUCGGUUUAAAAGGCAAGACCGUCAAAUUGCGGGAAAGGGGUCAACAGCCGUUCAGUACCAAGUCUCAGGGGAAACUUUGAGAUGGCCUUGCAAAGGGUAUGGUAAUAAGCUGACGGACAUGGUCCUAACCACGCAGCCAAGUCCUAAGUCAACAGAUCUUCUGUUGAUAUGGAUGCAGUUCACAGACUAAAUGUCGGUCGGGGAAGAUGUAUUCUUCUCAUAAGAUAUAGUCGGACCUCUCCUUAAUGGGAGCUAGCGGAUGAAGUGAUGCAACACUGGAGCCGCUGGGAACUAAUUUGUAUGCGAAAGUAUAUUGAUUAGUUUUGGAGUACUCGUGGUCG
Outline: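 Colonies from six replicate transformations of E. coli BL21(DE3) were pooled and amplicon-sequenced on an Illumina HiSeq 2500. The library placed an intron with all eight P1ex-region nucleotides randomised inside the knt kanamycin-resistance gene on pET-22b(+), and cells grew overnight at 37°C or 30°C on LB agar with or without 25 μg/mL kanamycin (plus 100 μg/mL carbenicillin, 50 μM IPTG, 0.2% rhamnose). Fitness is the DiMSum error-weighted combination of wild-type-normalised replicate fold changes, kanamycin versus none.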

| Sequence | self-splicing fitness (ln) (30 °C) | self-splicing fitness (ln) (37 °C) |
| --- | --- | --- |
| AAGGAGCAAUAUUACGAAGU | -3.53 ± 0.43 | -2.57 ± 0.36 |
| AUACAGCAAUAUUACGUGGC | -3.22 ± 0.12 | -2.39 ± 0.15 |
| UCUAAGCAAUAUUACGCGGU | -3.76 ± 0.29 | -1.4 ± 0.2 |
| CUUGAGCAAUAUUACGUCGU | -3.97 ± 0.18 | -2.75 ± 0.2 |
| UCGAAGCAAUAUUACGUAGG | -1.42 ± 0.08 | -1.61 ± 0.1 |
| UCCCAGCAAUAUUACGCAUU | -2.93 ± 0.076 | -1.58 ± 0.082 |
| UUCUAGCAAUAUUACGCCUG | -1.79 ± 0.4 | -1.6 ± 0.49 |
| ACACAGCAAUAUUACGAUGG | -1.53 ± 0.064 | -0.66 ± 0.082 |
| CUAAAGCAAUAUUACGCGCA | -2.92 ± 0.23 | -1.64 ± 0.33 |
| UUACAGCAAUAUUACGCUUC | -3.13 ± 0.37 | -2.99 ± 0.47 |
| AGUAAGCAAUAUUACGACAC | -1.58 ± 0.19 | -0.792 ± 0.17 |
| AACUAGCAAUAUUACGGCCU | -0.472 ± 0.09 | -0.0804 ± 0.095 |
| ACGGAGCAAUAUUACGAGUA | -2.03 ± 0.41 | -1.94 ± 0.33 |
| GGCCAGCAAUAUUACGAGAU | -2.68 ± 0.18 | -2.82 ± 0.24 |
| AAUAAGCAAUAUUACGGAGG | -3.19 ± 0.18 | -1.93 ± 0.2 |
| CUUCAGCAAUAUUACGGCUG | -3.75 ± 0.34 | -2.65 ± 0.47 |
| AUGAAGCAAUAUUACGGUUG | -0.993 ± 0.11 | -1.49 ± 0.12 |
| GAAUAGCAAUAUUACGCACC | -1.19 ± 0.23 | 0.185 ± 0.32 |
| GAAGAGCAAUAUUACGGCGU | -1.48 ± 0.1 | -0.224 ± 0.12 |
| CAUUAGCAAUAUUACGCGAG | -1.52 ± 0.11 | -0.923 ± 0.095 |
| UACAAGCAAUAUUACGCUCG | -1.26 ± 0.088 | 0.16 ± 0.11 |
| GGAUAGCAAUAUUACGAGUG | -3.38 ± 0.22 | -1.41 ± 0.14 |
| AGCAAGCAAUAUUACGGUAA | -2.53 ± 0.17 | -1.38 ± 0.12 |
| AAUUAGCAAUAUUACGAGCG | -1.1 ± 0.096 | -0.749 ± 0.099 |

| Sequence | self-splicing fitness (ln) (30 °C) | self-splicing fitness (ln) (37 °C) |
| --- | --- | --- |
| CUUAAGCAAUAUUACGCUUG | -4.19 ± 0.39 | -2.78 ± 0.31 |
| AACCAGCAAUAUUACGCUGU | -3.49 ± 0.15 | -1.4 ± 0.095 |
| CACCAGCAAUAUUACGUUAC | -4.48 ± 0.26 | -2.45 ± 0.18 |
| UUAGAGCAAUAUUACGGGUU | -4.25 ± 0.42 | -3.21 ± 0.35 |
| UAGGAGCAAUAUUACGCAUA | -2.01 ± 0.19 | -1.78 ± 0.17 |
| AACUAGCAAUAUUACGUAAU | -1.82 ± 0.098 | -0.948 ± 0.099 |
| UAGCAGCAAUAUUACGGGUG | -0.481 ± 0.058 | -0.431 ± 0.075 |
| CCAUAGCAAUAUUACGUGGC | -4.63 ± 0.29 | -2.43 ± 0.24 |
| UCACAGCAAUAUUACGGGGU | -3.58 ± 0.14 | -2.67 ± 0.18 |
| CUUAAGCAAUAUUACGACCU | -1.75 ± 0.39 |  |
| UGAUAGCAAUAUUACGCGAA | -2.64 ± 0.44 | -1.49 ± 0.26 |
| UUCGAGCAAUAUUACGCCUA | -1.67 ± 0.11 | -1.39 ± 0.097 |
| AACAAGCAAUAUUACGUUGC | -2.83 ± 0.18 | -3.21 ± 0.32 |
| GCUCAGCAAUAUUACGGGCA | -1.76 ± 0.17 | -0.69 ± 0.17 |
| ACGGAGCAAUAUUACGGUUU | -3.1 ± 0.15 | -3.31 ± 0.28 |
| UGCGAGCAAUAUUACGAUAA | -3.41 ± 0.23 | -2.01 ± 0.18 |
| GGUUAGCAAUAUUACGCCGA | -1.52 ± 0.25 | -0.734 ± 0.23 |
| GAGGAGCAAUAUUACGAGGG |  | -1.96 ± 0.41 |
| ACAUAGCAAUAUUACGAGUC | -3.91 ± 0.27 | -3.33 ± 0.25 |
| CGUCAGCAAUAUUACGAUCA | -0.722 ± 0.096 | 0.228 ± 0.12 |
| ACAUAGCAAUAUUACGCAAU | -3.57 ± 0.21 | -2.67 ± 0.24 |
| AAGGAGCAAUAUUACGUACC | -3.01 ± 0.33 | -3.19 ± 0.41 |
| GAUGAGCAAUAUUACGUAUA |  | -1.82 ± 0.35 |
| GACAAGCAAUAUUACGUAUU | -2.83 ± 0.1 | -1.66 ± 0.11 |
